The chains are these.
B1: HDV Ribozyme (parent)
chain: GGCCGGCAUGGUCCCAGCCUCCUCGCUGGCGCCGGCUGGGCAACAUUCCGAGGGGACCGUCCCCUCGGUAAUGGCGAAUGGGACCCA

Variants of B1 are the subject of the series. The series is described as follows: self-cleavage, relative activity (ratio to wild type); higher = more cleavage; co-transcriptional.
Take G53C G55U: the self-cleavage worked out at 0.987.
With G53C G55A, the self-cleavage was 0.898.
Regarding G52A U72G, the self-cleavage worked out at 0.749.
For G52A U72A, the self-cleavage came to 0.423.
For G52A U72C, the self-cleavage worked out at 0.591.
The result for G53A U65C reads 0.815.
In the case of A51U G80U, the self-cleavage came to 0.257.
Then G52A G55C, with 0.923.
For the variant G52A A77G, the self-cleavage was determined as 0.89.
With G52A A77C, the self-cleavage turned out to be 0.309.
On to G53A U72C, for which the self-cleavage was 0.731.
Turning to G53A U72G, the self-cleavage was determined as 0.429.
Take G53C G73A: the self-cleavage was found to be 0.782.
With G53C G73C, the self-cleavage is 0.36.
As to G53C G73U, the self-cleavage is 0.369.
G53C C63G: the self-cleavage is 0.973.
Regarding G53C C63A, the self-cleavage stood at 1.06.
As for G52U U79A, the self-cleavage was determined as 0.759.
For the variant A51G U69C, the self-cleavage amounted to 0.9.
A51G U69A: the self-cleavage came out at 1.11.
As for A51G U69G, the self-cleavage is 1.09.
As for G52C C64A, the self-cleavage was determined as 0.753.
In the case of G52C C64G, the self-cleavage turned out to be 0.739.
In the case of G53C U65G, the self-cleavage is 0.688.
For G53A G80U, the self-cleavage was found to be 0.234.
G53U A70G: the self-cleavage is 1.08.
On to G53U A70U, for which the self-cleavage was determined as 0.739.
For the variant G52U U72G, the self-cleavage came out at 0.396.
As for G52U U72C, the self-cleavage was determined as 0.426.
With G52A G59U, the self-cleavage came out at 0.865.
Take G52A G59A: the self-cleavage turned out to be 1.07.
As for G52A G59C, the self-cleavage was determined as 1.05.
For G52C C86G, the self-cleavage was 0.997.
G52C C57A: the self-cleavage turned out to be 0.817.
On to G52C C57G, for which the self-cleavage came to 0.866.
Take G52C C57U: the self-cleavage stood at 0.991.
Turning to G52C A71G, the self-cleavage was determined as 0.884.
With G52C A71U, the self-cleavage amounted to 0.831.
Consider G52C A71C, for which the self-cleavage stood at 0.332.
On to A51G G73C, for which the self-cleavage came out at 0.575.
Then A51G G73U, with 0.397; and A51G G73A, with 0.864.
As for A51U U79G, the self-cleavage was 0.534.
The result for A51G G74U reads 0.434; that for A51G G74A, 0.406.
Then G53C A87U, with 0.903; and G53A C86A, with 1.16; and G53A C86G, with 1.1.
Turning to G52C G59C, the self-cleavage stood at 0.987.
The result for G52C G59U reads 0.962; that for G52C G59A, 1.02.
For the variant G53A G74U, the self-cleavage amounted to 0.59.
Regarding G53A G74C, the self-cleavage turned out to be 0.265.
For the variant G53A A87G, the self-cleavage came to 0.995.
Consider G52U C57U, for which the self-cleavage worked out at 1.24.
Turning to G52U C57G, the self-cleavage is 0.95.
The result for G53C A77C reads 0.443; that for G53C G67C, 0.427.
Take G53C G67U: the self-cleavage was found to be 0.631.
For G53C G67A, the self-cleavage came to 0.723.
Turning to G52A C86G, the self-cleavage is 1.04.
Consider G52A C86U, for which the self-cleavage turned out to be 0.816.
Turning to G52U C64A, the self-cleavage was 0.911.
Consider A51U A78C, for which the self-cleavage came to 0.242.
For the variant G53C C75U, the self-cleavage was determined as 0.131.
Regarding G52U U65A, the self-cleavage worked out at 0.82.
The result for G52C A78C reads 0.0723; that for A51U G55U, 0.989.
Turning to G52A U65G, the self-cleavage amounted to 0.986.
On to G52A U65C, for which the self-cleavage stood at 0.954.
For G52U U69G, the self-cleavage was 1.19.
In the case of G53A G67U, the self-cleavage was 0.884.
Regarding G53C U72G, the self-cleavage was determined as 0.697.
G53C U72C: the self-cleavage stood at 1.02.
The result for G53C U72A reads 0.601; that for G52U C63U, 1; that for G53A A70G, 1.07.
Turning to G53A C58A, the self-cleavage is 0.962.
Then G53A C58U, with 0.987; and G53U A78G, with 0.739.
Then G53U A78C, with 0.229.
For G53A A78U, the self-cleavage came to 0.277.
Consider G53A A78G, for which the self-cleavage was 0.618.
Then A51U G53C, with 0.776; and A51U G53U, with 1.11.
As to G53C G74U, the self-cleavage was 0.379.
On to G53C G74C, for which the self-cleavage stood at 0.19.
As for A51U C84G, the self-cleavage is 0.443.
Take A51U C84U: the self-cleavage was 0.716.
For G53A U60A, the self-cleavage is 0.938.
G53A U60G: the self-cleavage was found to be 1.01.
With G53C C66U, the self-cleavage worked out at 0.918.
For the variant G53C C66G, the self-cleavage was determined as 1.01.
As to G53C C66A, the self-cleavage was determined as 0.73.
In the case of G52C C61A, the self-cleavage worked out at 0.857.
As for G52C U69A, the self-cleavage amounted to 1.21.
The result for G52C U69G reads 0.914.
In the case of G53A A71U, the self-cleavage stood at 0.904.
As to G52U G74C, the self-cleavage worked out at 0.363.
With G52A A56G, the self-cleavage came to 0.801.
As for G52A C75G, the self-cleavage was found to be 0.227.
For G52A C75A, the self-cleavage was 0.166.
Turning to G52A C75U, the self-cleavage is 0.147.
Regarding G53A G81U, the self-cleavage was 0.272.
For G53A G81A, the self-cleavage is 0.456.
The result for G52U A56C reads 0.815.
Turning to G52U G76U, the self-cleavage was found to be 1.05.
Then G52U G76C, with 0.921.
On to G53C C58U, for which the self-cleavage worked out at 1.14.
Take G53C C58A: the self-cleavage worked out at 1.06.
The result for G52C G67A reads 0.62.
Then G52C G67U, with 0.753; and A51G G76U, with 0.942; and G52C A87C, with 0.85.
Turning to G53A A83C, the self-cleavage stood at 0.464.
The result for G53A A83G reads 0.802.
For the variant G53A A83U, the self-cleavage worked out at 0.521.
Take G52C A70C: the self-cleavage was found to be 0.85.
In the case of G52C C58U, the self-cleavage worked out at 1.24.
Regarding G52U C86A, the self-cleavage was 0.926.
Regarding G52U C86U, the self-cleavage is 1.02.
Take G52A C85U: the self-cleavage turned out to be 0.923.
In the case of G52A C85A, the self-cleavage is 1.03.
For the variant G53C U79G, the self-cleavage was 0.443.
Then G53C U79A, with 0.538; and G53C C61U, with 1.2.
For G53C C61G, the self-cleavage worked out at 0.955.
Regarding A51U C62G, the self-cleavage stood at 0.131.
The result for A51U C62U reads 1.09; that for G52C G76U, 1.03.
Take G52C G76C: the self-cleavage was found to be 1.03.
Regarding G52C C66U, the self-cleavage worked out at 0.965.
In the case of G52C C66G, the self-cleavage came out at 0.672.
Consider G52U C84A, for which the self-cleavage is 0.904.
Regarding G52U C84G, the self-cleavage was 0.573.
Then G53A C85U, with 0.872; and G52U G68U, with 0.415.
The result for G52U G68C reads 0.185.
Regarding G52U G82A, the self-cleavage came to 0.277.
For G53A U79C, the self-cleavage was found to be 0.376.
As for G52A C63U, the self-cleavage was found to be 0.969.
Take G52A C63G: the self-cleavage turned out to be 0.415.
Take G52U G53C: the self-cleavage is 0.672.
Then G52U G53U, with 0.733; and A51G G59A, with 0.787.
Then G53A C57A, with 0.866; and G53A C57U, with 1.06.
On to A51U A77C, for which the self-cleavage came to 0.453.
The result for A51U A77U reads 0.815; that for G53A G59C, 0.872.
With G53A G59U, the self-cleavage came to 0.862.
The result for G53C A83C reads 0.525.
On to G52U G80U, for which the self-cleavage was 0.312.
For G52U A87G, the self-cleavage was 0.906.
With G52U A87U, the self-cleavage is 1.
Turning to G52C A83U, the self-cleavage amounted to 0.389.
As to G52C A83G, the self-cleavage turned out to be 0.683.
A51G U60C: the self-cleavage was 0.931.
In the case of A51G U60A, the self-cleavage stood at 0.852.
For the variant A51U C61U, the self-cleavage worked out at 0.781.
Then A51U C61G, with 0.831; and A51U C61A, with 0.938; and G52U G81C, with 0.298.
As to A51U, the self-cleavage worked out at 0.981.
On to A51G U79G, for which the self-cleavage turned out to be 0.831.
Consider A51G U79A, for which the self-cleavage is 0.675.
As for G52C G81U, the self-cleavage came to 0.579.

The record behind these values is the RNAGym collection of RNA variant scans (doi:10.7554/elife.80360).
